Source: PMC10682464, “The structural basis for light acclimation in phycobilisome light harvesting systems systems in Porphyridium purpureum” (Communications Biology, 2023)

Experiments:
[1] = target: T1, phycoerythrin (PE) β subunit of the Porphyridium purpureum phycobilisome (Porphyridium purpureum (endogenous in …, UniProt P11393 1-177, covalently attached open tetrapyrrole chromophores (sites not given))); experiment: cryo-EM structure; intact ML-PBS isolated from P. purpureum on a sucrose gradient; 1.5 mg/mL, diluted on the grid with 50 mM Tris pH 8.0, 16 °C; overall resolution 3.04 Å, C2 symmetry; conditions: both partners purified
T1 construct: phycoerythrin beta subunit, Porphyridium purpureum (UTEX 2757); chain of the ML-PBS model PDB 7EZX, which was built from LL-PBS PDB 6KGX; also called β^PE; PE subunit

[2] = target: the molecule itself; experiment: as above

Binder	binding result [1]	stoichiometry N [2]
phycoerythrin (PE) α subunit of the Porphyridium purpureum phycobilisome (natural protein, UniProt P11392 1-164, looked up, covalently attached open tetrapyrrole chromophores (sites not given), phycoerythrin alpha subunit, Porphyridium purpureum (UTEX 2757); chain of the ML-PBS model PDB 7EZX, which was built from LL-PBS PDB 6KGX; also called α^PE; PE subunit) MKSVITTVVSAADAAGRFPSNSDLESIQGNIQRSAARLEAAEKLAGNHEAVVKEAGDACFAKYAYLKNPGEAGENQEKINKCYRDVDHYMRLVNYDLVVGGTGPLDEWGIAGAREVYRTLNLPTSAYVASIAYTRDRLCVPRDMSAQAGVEFSAYLDYLINALS	binds	
αβ^PE monomer (phycoerythrin α and β subunits) of the Porphyridium purpureum phycobilisome (complex, covalently attached open tetrapyrrole chromophores (sites not given) | covalently attached open tetrapyrrole chromophores (sites not given), phycoerythrin alpha subunit, Porphyridium purpureum; as the chain of m1; phycoerythrin beta subunit, Porphyridium purpureum; as the chain of m2; The introduction says that (αβ) monomers assemble into trimers and hexamers; also called (αβ) monomer) chain 1: MKSVITTVVSAADAAGRFPSNSDLESIQGNIQRSAARLEAAEKLAGNHEAVVKEAGDACFAKYAYLKNPGEAGENQEKINKCYRDVDHYMRLVNYDLVVGGTGPLDEWGIAGAREVYRTLNLPTSAYVASIAYTRDRLCVPRDMSAQAGVEFSAYLDYLINALS chain 2: MLDAFSRVVVNSDAKAAYVGGSDLQALKSFIADGNKRLDAVNSIVSNASCMVSDAVSGMICENPGLISPGGNCYTNRRMAACLRDGEIILRYVSYALLAGDASVLEDRCLNGLKETYIALGVPTNSSIRAVSIMKAQAVAFITNTATERKMSFAAGDCTSLASEVASYFDRVGAAIS		6
